We go through one molecule from US20230001007A1, “Glycan-Interacting Compounds and Methods of Use” (Seagen Inc., priority 2017, published 2023).

The test system of experiment [1] is MDA-MB-231 cells transfected for enhanced expression of STn (STn positive cells). Nature of the experiment: ADC cytotoxicity assay ([…]-GLO). Conditions: MMAE-conjugated ADC versions; 72 hours; kill of STn positive cells. The experiment is classed as cell-based. The protocol:
MMAE-conjugated ADC versions of hSIA101, hSIA102, and hSIA103 were assessed in an ADC cytotoxicity assay using MDA-MB-231 cells (parental or transfected for enhanced expression of STn). Parental cells were grown in Eagle's Minimum Essential Medium (EMEM) supplemented with 10% FBS, lx Pen/Strep and 45 μg/mL gentamycin. STn positive cells were grown in the same media except with the addition of 1 mg/mL G418 for antibiotic selection. Cells were seeded separately (4,000 cells/well for parental cells or 2,000/well for STn positive cells) in 96-well plates using proper media described above. Cells were grown overnight. After 16-20 hours, cells were treated with varying concentrations of test antibodies in triplicate (50 nM to 0.012 nM) for 72 hours. Then, cells were analyzed using an ADC […]-GLO® luminescent cell viability assay kit (Promega, Madison, Wis.) to determine the amount of ATP present, an indicator of metabolically active cells. The assay uses a single reagent that is added directly to the cultured cells in serum-supplemented medium. The reagent lyses the cells and generates a luminescent signal proportional to the amount of ATP present. Luminescent signals were analyzed and used to calculate the half-maximal inhibitory concentration (IC50) values for each antibody used based on the concentration required to kill STn positive cells at half-maximal levels (see Table 9).

The subject of experiment [2] is array glycans (AcSTn, GcSTn, Tn and others). Nature of the experiment: Glycan array analysis. Also on record: key: Group 1: capable of binding AcSTn and GcSTn, if they bind to glycans 5, 6, 23 and 24; Group 2: capable of binding STn as well as some related structures that include an O-linkage to serine or threonine, if they bind to glycans 5, 6, 23, 24, 27 and 31; Group 3: capable of binding STn, but may also bind a broader set of related structures) if they bind glycans 5, 6, 23, 24, 17, 3, 19, 37, 27 and 31; Group 4: capable of binding to both AcSTn and GcSTn as well as the un-sialylated Tn antigen (therefore having broader specificity) if they bind to glycans 5, 6, 23, 24 and 47. The class given is binding. On the procedure:
Optimized glycan arrays are utilized to test antibody affinity and specificity for multiple glycans in a single experiment. Glycan arrays include 71 chemically synthesized and well-defined glycans, most of which are Neu5Ac and Neu5Gc glycan pairs.
300 ml of epoxy blocking buffer is prepared by combining 15 ml of 2 M Tris buffer (pH 8) with 0.9 ml of 16.6 M ethanolamine and 284.1 ml of distilled water. The solution is brought to a final pH of 9.0 with HCl. The solution is filtered using a […] nitrocellulose membrane. The epoxy buffer solution as well as 1 L of distilled water are pre-warmed to 50° C. Glass slides are arranged in a slide holder and quickly submerged in a staining tub with the warmed epoxy blocking buffer. Slides are incubated in the epoxy blocking buffer for 1 hour at 50° C. with periodic shaking to deactivate epoxy binding sites. Next, slides are rinsed and blocked with PBS with 1% OVA at 25° C. for one hour. Serum samples with polyclonal antibodies (1:1000) or purified monoclonal antibodies (1 ug/mL), are diluted in PBS with 1% OVA and added to the glycan array for one hour at 25° C. After extensive washing, binding of antibodies are detected by incubating glycan microarray slides with Cy3-conjugated anti-mouse IgG (Jackson Immunoresearch, West Grove, Pa.) for one hour. Slides are then washed extensively, dried and scanned with a Genepix 4000B scanner (Laser at 100%; gain at 350; 10 μm pixels). Raw data from scanned images are extracted using the Genepix software and analysis of raw data is carried out.
Based on array analysis, antibodies are classified according to array glycan binding profile. Antibodies are classified as “Group 1” antibodies, capable of binding AcSTn and GcSTn, if they bind to glycans 5, 6, 23 and 24. Such antibodies are referred to as Pan-STn antibodies due to their ability to associate with a wider range of STn structures and the portion of STn indicated by the largest ellipse in FIG. 1A. […]

In a further experiment the test system is MDA-MB-231-STn cells. Nature of the experiment: Flow cytometry-based binding analysis. Conditions: 0 to 300 nM, read-out: MDA-MB-231-STn cell binding [EC50 (nM)]. The protocol: Humanized IgG1 antibodies, prepared as described above, were subjected to characterization analysis including flow cytometry-based binding analysis with MDA-MB-231-STn cells; binding analysis by BSM ELISA; and glycan array analysis.
In flow cytometry-based binding studies, antibodies were screened over a concentration range of 0 to 300 nM, comparing binding to MDA-MB-231 cells with or without transfection-induced STn expression. Binding was determined using an anti-human APC conjugated secondary antibody and only live cells were considered (based on propidium iodide negative gating). 5,000 events were collected per sample on average. Data were analyzed using FlowJo software (Asland, Oreg.) and resulting APC means and % APC were obtained. […] Human isotype IgG1 antibody was used as an isotype negative control. Epidermal growth factor receptor (LA22, EMD Millipore, Billerica, Mass.) was used as a positive control.

Another experiment relates to RKO. Nature of the experiment: STn expression on CRC line by flow cytometry using anti-STn antibodies. The experiment is classed as cell-based. Conditions: detected using hSIA101. The protocol:
(§1) Mouse antibodies were characterized for in vitro and in vivo efficacy in breast, colon and ovarian cancer models. The antibodies were used to identify CRC cell lines that express STn on the surface. Five CRC lines were incubated in vitro and grown to confluency. % STn expression was determined by flow cytometry using anti-STn antibodies. Approximately 30-70% of cultured SW403, COL0205 and LS174T cells naturally expressed STn on the surface (as detected using mSIA103), while HT29 and RKO had very little to no detectable STn (as detected using hSIA101) on their cell surface (see Table 6).
In general terms: A flow cytometer gives signals particle by particle.

A further experiment concerns HT29. Described as above. The class given is cell-based. Conditions: detected using hSIA101. The protocol:
as §1

B1: hSIA101 (antibody, V domains shown)
VH: EVQLVQSGAEVKKPGASVKVSCKASGYTFTDHAIHWVRQAPGQGLEWMGYFSPGNDDIKYNEKFRGRVTMTADKSSSTAYMELRSLRSDDTAVYFCKRSLSTPYWGQGTLVTVSS
VL: DIVMTQSPDSLAVSLGERATINCKSSQSLLNRGNHKNYLTWYQQKPGQPPKLLIYWASTRESGVPDRFSGSGSGTDFTLTISSLQAEDVAVYYCQNDYTYPYTFGQGTKVEIK
What is called IC50 is the point on the concentration scale where inhibition reaches its midpoint. The EC50 is the concentration needed to bring the measured effect to its halfway point. B1: in experiment [1], the 50% inhibitory concentration (IC50) came to 5.2 nM. The “Array glycan binding profile” value in experiment [2] was “Group 1”. Further, the concentration giving a half-maximal response (EC50) with MDA-MB-231-STn cells turned out to be 2 nM. Also, the “% STn expression” value with RKO and in the experiment on HT29 was “Low to non-detectable” throughout.
